Measured values reported in PMC11381654 (2020).

Target: human IL‐4Rα (human, UniProt P24394 26-232, N‐glycosylation sites (modelled in the crystal structure; positions not given))
Assay: ITC

Kd: 2.55 nM
B1: dAb1 (VHH)
VHH: QVQLVESGGGLVQPGGSLRLSCAASGDFYCMAWFRQAPGKEREAVAAIRSGGRSTYYADSVKGRFTISRDNSKNTLYLQMNSLKAEDTAVYYCAVGVDGNCRNYWGQGTLVTVSS
